Here are results for 13 molecules from patent US20120301461A1 (Merck Sharp & Dohme, published 2012).

Substitutions are numbered along the chain they refer to. Names may count otherwise.

In assay [1] the target is T1, murine PCSK9, V5- and His-tagged (mPCSK9v5His) (murine, UniProt Q80W65 35-694). The assay is described as follows: cell-based or functional assay.
Assay [2] deals with T1, murine PCSK9, V5- and His-tagged …. Briefly: SPR (Biacore 2000), Fab captured on anti-Fab IgG, PCSK9 in flow; mean N=3.
Description: Anti-Fab IgG (Human specific) (Sigma, catalog #I5260) was covalently coupled to surfaces 1 and 2 of a Sensor Chip CM5 via primary amine groups, using the immobilization wizard with the “Aim for immobilization” option using Biacore™ Amine Coupling Kit (cat #BR-1000-50. A target immobilization of 5000 RU was specified. The wizard uses a 7 minute activation with a 1:1 mixture of 100 mM NHS (N-Hydroxysuccinimide) and 400 mM EDC (1-ethyl-3-(3-dimethylaminopropyl)-carbodiimide), injects the ligand in several pulses to achieve the desired level, then deactivates the remaining surface with a 7 minute pulse of ethanolamine.
Each Fab was captured by flowing a 500 ng/ml solution at 5 or 10 μl/min for 1-1.5 minutes to reach a target RL for an Rₘₐₓ of 100-150 RU for the reaction. 5-10 concentrations of hPCSK9v5His or mPCSK9v5His antigens were flowed across the surface at 30 μl/minute for 3-4 minutes. 15-60 minutes dissociation time was allowed before regeneration of the Anti-Fab surface with a 30 second pulse of 10 mM glycine pH 2.0.
In assay [3] the target is T2, human PCSK9, V5- and His-tagged (hPCSK9v5His) (human, UniProt Q8NBP7 31-692).
T2 construct: Recombinant secreted protein; Peptides 31-49 (prodomain) and 153-; also called wt-hPCSK9; wt-PCSK9; not shown: V5 and His tags
T2 sequence (Q8NBP7 31-692 limits assumed): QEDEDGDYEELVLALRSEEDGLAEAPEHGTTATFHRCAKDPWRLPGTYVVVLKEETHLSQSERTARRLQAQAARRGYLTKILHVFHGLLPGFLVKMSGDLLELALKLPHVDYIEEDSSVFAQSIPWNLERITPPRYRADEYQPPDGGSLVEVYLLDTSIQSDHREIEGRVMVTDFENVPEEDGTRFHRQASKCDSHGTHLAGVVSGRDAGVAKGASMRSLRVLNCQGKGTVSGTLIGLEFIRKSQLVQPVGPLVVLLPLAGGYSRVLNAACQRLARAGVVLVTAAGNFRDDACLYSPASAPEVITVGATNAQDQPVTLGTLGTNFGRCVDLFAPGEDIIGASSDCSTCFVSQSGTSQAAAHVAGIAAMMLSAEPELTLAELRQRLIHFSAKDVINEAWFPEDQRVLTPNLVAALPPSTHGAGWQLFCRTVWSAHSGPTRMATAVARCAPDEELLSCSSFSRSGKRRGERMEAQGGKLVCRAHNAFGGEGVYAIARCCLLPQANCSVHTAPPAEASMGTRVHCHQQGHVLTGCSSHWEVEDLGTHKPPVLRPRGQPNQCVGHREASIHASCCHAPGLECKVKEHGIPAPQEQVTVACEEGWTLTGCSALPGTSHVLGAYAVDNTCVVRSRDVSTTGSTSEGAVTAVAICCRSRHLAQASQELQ
The assay is described as follows: SPR (Bio-Rad ProteOn), Fab against human PCSK9-V5-His.

The target in assay [4] is T1, murine PCSK9, V5- and His-tagged …. The assay is described as follows: SPR (Biacore 2000), IgG captured on goat anti-human IgG, PCSK9 in flow; mean N=2.
Description: A goat Anti-Human IgG (Caltag, catalog #H10700) was covalently coupled to surfaces 1 and 2 of a Sensor Chip CM5 via primary amine groups, using the immobilization wizard with the “Aim for immobilization” option using Biacore™ Amine Coupling Kit (cat #BR-1000-50. A target immobilization of 5000 RU was specified. The wizard uses a 7 minute activation with a 1:1 mixture of 100 mM NHS (N-Hydroxysuccinimide) and 400 mM EDC (1-ethyl-3-(3-dimethylaminopropyl)-carbodiimide), injects the ligand in several pulses to achieve the desired level, then deactivates the remaining surface with a 7 minute pulse of ethanolamine.
IgG was captured by flowing a 10 nM solution at 10 μl/min for 1-1.5 minutes to reach a target RL for an Rₘₐₓ of 100-150 RU for the reaction. 5-10 concentrations of hPCSK9v5His or mPCSK9v5His antigens were flowed across the surface at 30 or 60 μl/minute for 4 minutes. 15-60 minutes dissociation time was allowed before regeneration of the Anti-IgG surface with a 60 second pulse of 10 mM Glycine pH 1.7.
The target is the same in assay [5]. The assay is described as follows: kinetic constants of 1B20 Fab; method not named at the table (presumably SPR as in Example 6).

T1 sequence (Q80W65 35-694 limits assumed): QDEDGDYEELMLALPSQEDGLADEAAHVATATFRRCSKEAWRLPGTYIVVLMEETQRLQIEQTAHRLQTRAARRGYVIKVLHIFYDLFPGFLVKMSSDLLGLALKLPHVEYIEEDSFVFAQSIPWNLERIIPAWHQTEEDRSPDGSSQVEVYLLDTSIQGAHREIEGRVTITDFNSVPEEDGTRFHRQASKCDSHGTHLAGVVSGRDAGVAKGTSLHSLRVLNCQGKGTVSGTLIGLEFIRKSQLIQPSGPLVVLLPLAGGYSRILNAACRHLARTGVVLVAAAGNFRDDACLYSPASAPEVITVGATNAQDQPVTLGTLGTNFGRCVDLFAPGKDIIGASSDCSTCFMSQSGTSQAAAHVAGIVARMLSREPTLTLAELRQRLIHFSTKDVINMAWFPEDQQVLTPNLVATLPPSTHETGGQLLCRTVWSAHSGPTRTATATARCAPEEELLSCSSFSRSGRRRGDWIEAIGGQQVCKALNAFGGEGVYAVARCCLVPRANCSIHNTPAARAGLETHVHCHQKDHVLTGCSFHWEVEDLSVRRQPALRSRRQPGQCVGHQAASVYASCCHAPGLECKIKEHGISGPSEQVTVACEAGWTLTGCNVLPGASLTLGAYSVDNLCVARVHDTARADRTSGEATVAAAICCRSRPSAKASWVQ

B1: m2CX1D05 Fab (Fab, V domains shown)
VH: QVQLVQSGAEVKKPGSSVKVSCKASGGTFNSHAISWVRQAPGQGLEWMGGINPILGIANYAQKFQGRVTITADESTSTAYMELSSLRSEDTAVYYCARHYEIQIGRYGMNVYYLMYRFASWGQGTLVTVSS
VL: DIQMTQSPSSLSASVGDRVTITCRASQGIRSALNWYQQKPGKAPKLLIYNGSTLQSGVPSRFSGSGSGTDFTLTISSLQPEDFAVYYCQQFDGDPTFGQGTKVEIKR
notes: also called Fab 1D05; mPCSK9 2CX1D05 Fab
Take B1: the “IC50, inhibition of PCSK9-dependent loss of cellular LDL uptake (Exopolar assay, HEK cells, PCSK9 5 ug/ml)” value in assay [1] came out at 97 nM. In addition, the Kd in assay [2] worked out at 3.35 nM.

B2: 1D05 Fab variant M48L (Fab, V domains shown)
VH: B1 VH with M48L
VL: B1 VL
notes: Tested as a Fab, with only the heavy chain mutated
Regarding B2, in assay [3], binding was characterised by a dissociation constant (Kd) of 1.52 nM.

B3: 1D05 IgG2m4 (antibody, V domains shown)
VH: B1 VH
VL: B1 VL
notes: also called M2CX1D05 (IgG); IgG 1D05
Take B3: the “IC50, inhibition of PCSK9-dependent loss of cellular LDL uptake (Exopolar assay, HEK cells, PCSK9 5 ug/ml)” value in assay [1] is 85 nM. Also, in assay [4], the Kd turned out to be 3.2 nM.

B4: 1D05 Fab variant H32Y (Fab, V domains shown)
VH: B1 VH with H32Y
VL: B1 VL
notes: Site-directed mutant of 1D05, tested as a Fab, with only the heavy chain mutated
Molecule B4 displayed a Kd in assay [3] of 2.01 nM.

B5: 1D05 Fab variant N50Q (Fab, V domains shown)
VH: B1 VH
VL: B1 VL with N50Q
notes: Tested as a Fab, with only the light chain mutated
B5 came in with a Kd in assay [3] of 0.615 nM.

B6: 1D05 Fab variant M48L/M109L/M115L (Fab, V domains shown)
VH: B1 VH with M48L, M109L, M115L
VL: B1 VL
notes: as for B2
The molecule B6 yielded a Kd in assay [3] of 1.13 nM.

B7: 1D05 Fab variant M48V (Fab, V domains shown)
VH: B1 VH with M48V
VL: B1 VL
notes: as for B2
For the molecule B7, the Kd in assay [3] came out at 1.95 nM.

B8: 1D05 Fab variant M48A (Fab, V domains shown)
VH: B1 VH with M48A
VL: B1 VL
notes: as for B2
For the molecule B8, in assay [3], the Kd worked out at 2.06 nM.

B9: 1D05 Fab variant N50Y (Fab, V domains shown)
VH: B1 VH
VL: B1 VL with N50Y
notes: as for B5
In assay [3], B9 came in with a Kd of 2.58 nM.

B10: 1D05 Fab variant N50T (Fab, V domains shown)
VH: B1 VH
VL: B1 VL with N50T
notes: as for B5
B10 gave a Kd in assay [3] of 2.13 nM.

B11: 1D05 Fab variant N50D (Fab, V domains shown)
VH: B1 VH
VL: B1 VL with N50D
notes: as for B5
Take B11: in assay [3], the affinity, expressed as Kd, was 3.42 nM.

B12: 1D05 Fab variant H99Y (Fab, V domains shown)
VH: B1 VH with H99Y
VL: B1 VL
notes: as for B2
The molecule B12 showed a Kd in assay [3] of 1.45 nM.

B13: 1B20 Fab (Fab, V domains shown)
VH: QVQLVQSGAEVKKPGESLKISCKGSGYSFTNYWISWVRQMPGKGLEWMGIIYPGDSYTNYSPSFQGQVTISADKSISTAYLQWSSLKASDTAMYYCARDYWYKPLFDIWGQGTLVTVSS
VL: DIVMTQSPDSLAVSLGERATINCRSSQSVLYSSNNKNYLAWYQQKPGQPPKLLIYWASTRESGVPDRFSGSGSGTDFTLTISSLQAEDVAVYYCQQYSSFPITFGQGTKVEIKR
Take B13: the “IC50, Exopolar assay (PCSK9-dependent loss of cellular LDL uptake)” value in assay [1] turned out to be 152 nM. For the same molecule, in assay [5], the Ka was 2e+09 M⁻¹, the Kd came to 0.51 nM, the koff is 7.18e-05 s⁻¹ and the kon was determined as 141000 M⁻¹ s⁻¹.
